In patent US20200002432A1, “ANTI-CD98 ANTIBODIES AND ANTIBODY DRUG CONJUGATES” (AbbVie Inc., priority 2016, published 2020):
Numbering of substitutions follows the chain as printed.

Tests used:
[1] = biological target: T1, human CD98 (Homo sapiens, UniProt P08195); test: Binding of humanized anti-CD98 antibodies to human CD98; settings: humanized variants of huAb3/huAb15 and framework engineered antibodies
T1 sequence (P08195 1-630 isoform P08195-1): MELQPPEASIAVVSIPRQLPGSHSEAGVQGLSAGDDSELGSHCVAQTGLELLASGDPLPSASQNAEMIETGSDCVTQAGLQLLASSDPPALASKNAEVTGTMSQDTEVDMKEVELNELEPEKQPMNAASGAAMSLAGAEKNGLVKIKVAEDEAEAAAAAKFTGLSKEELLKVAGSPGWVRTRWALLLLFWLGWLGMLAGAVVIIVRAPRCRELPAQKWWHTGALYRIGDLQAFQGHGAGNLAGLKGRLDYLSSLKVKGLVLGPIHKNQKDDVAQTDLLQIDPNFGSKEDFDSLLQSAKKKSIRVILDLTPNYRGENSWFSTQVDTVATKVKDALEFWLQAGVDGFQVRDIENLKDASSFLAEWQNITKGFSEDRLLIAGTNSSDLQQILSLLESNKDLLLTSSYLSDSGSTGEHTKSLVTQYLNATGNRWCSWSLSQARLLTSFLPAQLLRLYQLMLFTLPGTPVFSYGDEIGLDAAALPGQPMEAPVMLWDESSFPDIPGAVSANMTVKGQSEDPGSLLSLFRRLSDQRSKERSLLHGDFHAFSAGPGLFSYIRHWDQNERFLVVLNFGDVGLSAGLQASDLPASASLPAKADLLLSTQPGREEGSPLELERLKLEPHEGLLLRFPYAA

[2] = tested on: cynomolgus monkey CD98 ECD (cyCD98 ECD); test: Biacore surface plasmon resonance binding kinetics, anti-Fc capture; settings: framework re-engineered mAbs, Table 24
Protocol: (§1) The binding kinetics of these purified mouse and rat monoclonal anti-CD98 antibodies for purified recombinant CD98 protein (extracellular domain, ECD) were determined by surface plasmon resonance-based measurements made on Biacore T100/T200 instruments (GE Healthcare, Piscataway, N.J.) at 25° C. using an anti-Fc capture assay approach. Binding kinetic measurements were made in the assay buffer HBS-EP+: 10 mM Hepes, pH 7.4, 150 mM NaCl, 3 mM EDTA, 0.05% Tween 20). For example, approximately 8000 RU of anti-Fc (species specific) polyclonal antibody (Thermo Fisher Scientific Inc., Rockford, Ill.) diluted in 10 mM sodium acetate (pH 4.5) was directly immobilized across a CM5 research grade biosensor chip using a standard amine coupling kit according to manufacturer's instructions and procedures at 25 μg/ml. Unreacted moieties on the biosensor surface were blocked with ethanolamine. The test antibody to be captured as a ligand was diluted in running buffer to ˜0.5 μg/mL and injected over anti-Fc surface at a flow rate of 10 μL/min. CD98 binding and dissociation were observed under a continuous flow rate of 80 μL/min. Human and cynomolgus monkey CD98 ECDs, both with a C-terminal His-tag, are used for this study (Table 3). After each cycle the anti-Fc capture surface was regenerated using 10 mM Glycine-HCl, pH 1.5. During the assay, all measurements were referenced against the capture surface alone (i.e., with no captured test antibody) and buffer-only injections (no antigen) were used for double referencing. For kinetic analysis, rate equations derived from the 1:1 Langmuir binding model were fitted simultaneously, globally and with mass transfer term included to multiple referenced antigen binding curves using Biacore T100/T200 Evaluation software.
(§2) The in vitro binding activities of the recombinant anti-CD98 chimeric mAbs were measured against both recombinant CD98 extracellular domain proteins (ECDs) and CD98-expressing cells. Briefly, binding kinetics of anti-CD98 chimera mAbs for human and cynomolgus CD98 ECDs were determined by surface plasmon resonance-based measurements as described in Example 4. Table 10 reported the association and dissociation rate constants for CD98 binding, ka (M^−1s^−1) and […], and the equilibrium dissociation constant KD (M) of the interaction between antibodies and the target antigen. Binding of anti-CD98 chimera mAbs for CD98 on cell surface was evaluated by flow cytometry against CHO-K1 cell line stably transfected to express human CD98 and 3T12 cell line stably transfected to express cynomolgus monkey CD98. Data was analyzed using Graphpad Prism software and EC50 values were reported as the concentration of antibody to achieve 50% of maximal binding to CD98-expressing cells (Table 10).
(§3) The binding kinetics of the recombinant anti-CD98 chimeric antibodies for purified recombinant CD98 protein (extracellular domain. ECD) were determined by surface plasmon resonance-based measurements, as described in the Example 4.

[3] = biological target: T2, human CD98 ECD (huCD98 ECD) (Homo sapiens, UniProt P08195); test: as above; settings: framework re-engineered mAbs, Table 24
T2 construct: His6 (with AAA linker) (C)
T2 sequence (P08195 with tags, fused parts or gaps): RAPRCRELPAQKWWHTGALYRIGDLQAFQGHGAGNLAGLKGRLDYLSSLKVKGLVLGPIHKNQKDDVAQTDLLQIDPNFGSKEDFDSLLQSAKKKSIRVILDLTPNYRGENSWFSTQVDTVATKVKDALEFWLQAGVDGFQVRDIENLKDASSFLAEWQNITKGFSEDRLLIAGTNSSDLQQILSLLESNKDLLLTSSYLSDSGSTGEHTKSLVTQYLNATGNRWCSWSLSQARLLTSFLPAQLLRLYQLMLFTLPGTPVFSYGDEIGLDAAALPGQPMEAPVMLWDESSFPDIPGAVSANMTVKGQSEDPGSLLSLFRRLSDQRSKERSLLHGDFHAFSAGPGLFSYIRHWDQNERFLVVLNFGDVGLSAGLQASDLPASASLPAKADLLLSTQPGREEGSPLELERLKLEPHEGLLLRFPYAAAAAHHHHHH
Protocol: as §1, §2, §3

[4] = biological target: T3, Cynomolgus monkey CD98 ECD with C-terminal His-tag (cynomolgus monkey, UniProt P08195 105-529 (human entry)); test: SPR (Biacore), mAb captured on anti-Fc, CD98 ECD as analyte
T3 construct: also called cyCD98 ECD; recombinant cynomolgus monkey CD98 extracellular domain
T3 chain: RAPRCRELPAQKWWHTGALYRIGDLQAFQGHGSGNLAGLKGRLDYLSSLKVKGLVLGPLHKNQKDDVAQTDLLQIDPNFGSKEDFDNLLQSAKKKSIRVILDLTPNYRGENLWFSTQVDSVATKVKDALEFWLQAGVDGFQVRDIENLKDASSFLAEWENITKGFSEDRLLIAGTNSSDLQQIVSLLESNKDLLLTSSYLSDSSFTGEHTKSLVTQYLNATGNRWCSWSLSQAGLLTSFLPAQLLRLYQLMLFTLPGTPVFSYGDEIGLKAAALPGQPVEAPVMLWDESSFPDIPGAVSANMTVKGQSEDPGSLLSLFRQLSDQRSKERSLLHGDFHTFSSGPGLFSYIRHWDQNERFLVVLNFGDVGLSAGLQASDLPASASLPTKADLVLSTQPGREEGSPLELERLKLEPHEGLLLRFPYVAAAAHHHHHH
Protocol: as §1

[5] = biological target: T4, Human CD98 ECD with C-terminal His-tag (human, UniProt P08195 105-529); test: as above
T4 construct: also called huCD98 ECD; recombinant human CD98 extracellular domain
T4 sequence: T2 sequence (P08195 with tags, fused parts or gaps)
Protocol: as §1

B1: huAb101: humanized framework engineered anti-CD98 antibody; heavy chain variable SEQ ID NO: 106, light chain variable SEQ ID NO: 107 (antibody, V domains shown)
VH: EVQLVESGGGLVKPGGSLRLSCATSGFTFIDYYMSWVRQAPGKGLEWLGFIRNKANRYTTEYSASVKGRFTISRDNSKSILYLQMNSLKTEDTAVYYCTRDRPAWFVYWGQGTLVTVSS
VL: DIVMTQTPLSLPVTPGEPASISCKSSQSLLYSSNQKNYLAWYLQKPGQSPQLLIYWASTRESGVPDRFSGSGSGTDFTLKISRVEAEDVGVYYCQQYYSYPYTFGGGTKVEIK
- binding to human CD98 [1]: maintained binding to human CD98
- ka, cynoCD98 ECD [2]: 30000 M⁻¹ s⁻¹
- kd, cynoCD98 ECD [2]: 0.00067 s⁻¹
- ka, huCD98 ECD [3]: 290000 M⁻¹ s⁻¹
- kd, huCD98 ECD [3]: 0.0018 s⁻¹

B2: huAb109: humanized framework engineered anti-CD98 antibody; heavy chain variable SEQ ID NO: 116, light chain variable SEQ ID NO: 117 (antibody, V domains shown)
VH: EVQLVESGGGLVQPGGSLRLSCAASGFTFSDYTMAWVRQAPGKGLEWVATIIYDARGTYYRDAVKGRFTISRDNAKNTLYLQMNSLRAEDTAVYYCARQSDDTYYYWGYFDYWGQGTMVTVSS
VL: B1 VL with S22N, Y31F, S33G, E61Q, V91I, Y100S, G106Q, V110L
- binding to human CD98 [1]: maintained binding to human CD98
- ka, cynoCD98 ECD [2]: 26000 M⁻¹ s⁻¹
- kd, cynoCD98 ECD [2]: 0.00031 s⁻¹
- ka, huCD98 ECD [3]: 160000 M⁻¹ s⁻¹
- kd, huCD98 ECD [3]: 0.00017 s⁻¹

B3: huAb107: humanized framework engineered anti-CD98 antibody; heavy chain variable SEQ ID NO: 114, light chain variable SEQ ID NO: 112 (antibody, V domains shown)
VH: B2 VH with D54S, A55G
VL: B1 VL with S22N, Y31F, S33G, E61Q, V91I, S99D, Y100V, G106Q, V110L
- binding to human CD98 [1]: maintained binding to human CD98
- ka, cynoCD98 ECD [2]: 33000 M⁻¹ s⁻¹
- kd, cynoCD98 ECD [2]: 8.7e-05 s⁻¹
- ka, huCD98 ECD [3]: 110000 M⁻¹ s⁻¹
- kd, huCD98 ECD [3]: 3.8e-05 s⁻¹

B4: huAb103: humanized framework engineered anti-CD98 antibody; heavy chain variable SEQ ID NO: 109, light chain variable SEQ ID NO: 107 (antibody, V domains shown)
VH: B1 VH with N56Y, R57G
VL: B1 VL
- binding to human CD98 [1]: maintained binding to human CD98
- ka, cynoCD98 ECD [2]: 31000 M⁻¹ s⁻¹
- kd, cynoCD98 ECD [2]: 0.00044 s⁻¹
- ka, huCD98 ECD [3]: 180000 M⁻¹ s⁻¹
- kd, huCD98 ECD [3]: 0.00059 s⁻¹

B5: huAb105: humanized framework engineered anti-CD98 antibody; heavy chain variable SEQ ID NO: 111, light chain variable SEQ ID NO: 112 (antibody, V domains shown)
VH: B2 VH with D54S, A55G, D102H
VL: B1 VL with S22N, Y31F, S33G, E61Q, V91I, S99D, Y100V, G106Q, V110L
- binding to human CD98 [1]: maintained binding to human CD98
- ka, cynoCD98 ECD [2]: 38000 M⁻¹ s⁻¹
- kd, cynoCD98 ECD [2]: 5.3e-05 s⁻¹
- ka, huCD98 ECD [3]: 140000 M⁻¹ s⁻¹
- kd, huCD98 ECD [3]: 2.4e-05 s⁻¹

B6: Ab13 (antibody, V domains shown)
VH: EVKLQQSGDELVRPGASVKISCKASGYTFTSYSMHWVKERPGQGLEWIGAIFPIIGTTEYNQKFKGKATLTADKSSNTANMELSRLTSEDSAVYYCARVYLSYFDYWGQGVMVTVSS
VL: DIQMTQSPSFLSASVGDRVTINCKASQNINKYLDWYQRKHGEAPKLLIYNTNNLQTGIPSRFSGSGSGTDYTLTISSLQPEDVATYFCLQHSSRYTFGAGTKLELK
notes: also called anti-CD98 hybridoma mAb Ab13
- Kd [4]: 47 nM
- koff [4]: 0.00088 s⁻¹
- kon [4]: 19000 M⁻¹ s⁻¹
- Kd [5]: 1.9 nM
- koff [5]: 5.5e-05 s⁻¹
- kon [5]: 29000 M⁻¹ s⁻¹
